{
  "source": "paper PMC2566858",
  "about": "(Nucleic Acids Research, 2008)",
  "binders": {"B1": {"name": "60-base ssDNA (ssDNA)", "DNA": "AAGCCAAGCTTCTAGAGTCAGCCCGTGATATTCATTACTTCTTATCCTAGGATCCCCGTT"}, "B2": {"name": "60 bp dsDNA (dsDNA)", "DNA 1": "AAGCCAAGCTTCTAGAGTCAGCCCGTGATATTCATTACTTCTTATCCTAGGATCCCCGTT", "DNA 2": "AACGGGGATCCTAGGATAAGAAGTAATGAATATCACGGGCTGACTCTAGAAGCTTGGCTT"}},
  "test_in_all_cases": "fluorescence anisotropy",
  "key": {"[1]": {"target": "T1, rGyr_fl Y851F (full-length reverse gyrase) (Thermotoga maritima, UniProt O51934 1-1104, Y851F)", "T1 sequence": "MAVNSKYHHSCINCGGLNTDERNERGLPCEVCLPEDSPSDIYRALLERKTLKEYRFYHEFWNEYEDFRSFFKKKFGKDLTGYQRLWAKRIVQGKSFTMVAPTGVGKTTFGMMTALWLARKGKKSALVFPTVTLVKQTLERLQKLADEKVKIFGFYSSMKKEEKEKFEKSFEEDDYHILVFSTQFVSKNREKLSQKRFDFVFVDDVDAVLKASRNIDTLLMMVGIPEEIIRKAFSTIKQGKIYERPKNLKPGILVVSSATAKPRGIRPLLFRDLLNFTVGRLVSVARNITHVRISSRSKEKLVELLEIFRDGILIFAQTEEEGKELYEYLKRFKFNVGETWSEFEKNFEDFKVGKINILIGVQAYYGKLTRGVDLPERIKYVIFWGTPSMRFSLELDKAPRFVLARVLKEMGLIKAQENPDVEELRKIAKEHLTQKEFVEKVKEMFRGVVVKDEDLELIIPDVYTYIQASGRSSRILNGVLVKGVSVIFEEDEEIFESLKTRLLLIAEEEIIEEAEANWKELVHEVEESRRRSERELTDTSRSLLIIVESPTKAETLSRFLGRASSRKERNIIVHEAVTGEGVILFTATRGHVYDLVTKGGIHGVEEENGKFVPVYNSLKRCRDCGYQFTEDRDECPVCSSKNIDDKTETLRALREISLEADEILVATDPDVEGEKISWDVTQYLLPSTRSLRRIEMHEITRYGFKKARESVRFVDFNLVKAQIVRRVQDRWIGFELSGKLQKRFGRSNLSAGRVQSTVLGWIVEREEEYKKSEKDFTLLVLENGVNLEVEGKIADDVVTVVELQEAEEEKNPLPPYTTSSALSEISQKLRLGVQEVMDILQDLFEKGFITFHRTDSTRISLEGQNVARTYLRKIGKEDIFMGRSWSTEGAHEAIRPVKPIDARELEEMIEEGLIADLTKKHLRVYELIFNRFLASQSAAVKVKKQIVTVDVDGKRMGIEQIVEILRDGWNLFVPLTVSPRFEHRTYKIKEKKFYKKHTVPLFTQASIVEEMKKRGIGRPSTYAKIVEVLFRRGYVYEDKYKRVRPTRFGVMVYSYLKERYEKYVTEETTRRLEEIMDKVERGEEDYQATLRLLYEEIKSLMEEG"}, "rGyr_hel K106Q": {"target": "T2, rGyr_hel K106Q (Thermotoga maritima, UniProt O51934 59-541, K106Q)", "T2 sequence": "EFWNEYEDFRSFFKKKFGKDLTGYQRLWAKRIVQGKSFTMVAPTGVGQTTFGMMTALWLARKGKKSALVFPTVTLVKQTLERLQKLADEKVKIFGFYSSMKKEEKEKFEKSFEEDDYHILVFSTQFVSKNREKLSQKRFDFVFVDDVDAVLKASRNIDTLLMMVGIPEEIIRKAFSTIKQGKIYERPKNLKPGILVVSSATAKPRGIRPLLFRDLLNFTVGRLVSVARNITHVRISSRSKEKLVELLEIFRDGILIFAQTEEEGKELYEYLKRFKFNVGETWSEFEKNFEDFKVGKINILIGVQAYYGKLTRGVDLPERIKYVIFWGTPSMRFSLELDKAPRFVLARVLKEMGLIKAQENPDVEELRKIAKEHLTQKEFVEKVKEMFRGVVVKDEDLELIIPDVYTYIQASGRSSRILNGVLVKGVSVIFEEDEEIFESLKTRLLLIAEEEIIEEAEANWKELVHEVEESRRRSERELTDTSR"}, "rGyr_fl K106Q/Y851F": {"target": "T3, rGyr_fl K106Q/Y851F (Thermotoga maritima, UniProt O51934 1-1104, K106Q;Y851F)", "T3 sequence": "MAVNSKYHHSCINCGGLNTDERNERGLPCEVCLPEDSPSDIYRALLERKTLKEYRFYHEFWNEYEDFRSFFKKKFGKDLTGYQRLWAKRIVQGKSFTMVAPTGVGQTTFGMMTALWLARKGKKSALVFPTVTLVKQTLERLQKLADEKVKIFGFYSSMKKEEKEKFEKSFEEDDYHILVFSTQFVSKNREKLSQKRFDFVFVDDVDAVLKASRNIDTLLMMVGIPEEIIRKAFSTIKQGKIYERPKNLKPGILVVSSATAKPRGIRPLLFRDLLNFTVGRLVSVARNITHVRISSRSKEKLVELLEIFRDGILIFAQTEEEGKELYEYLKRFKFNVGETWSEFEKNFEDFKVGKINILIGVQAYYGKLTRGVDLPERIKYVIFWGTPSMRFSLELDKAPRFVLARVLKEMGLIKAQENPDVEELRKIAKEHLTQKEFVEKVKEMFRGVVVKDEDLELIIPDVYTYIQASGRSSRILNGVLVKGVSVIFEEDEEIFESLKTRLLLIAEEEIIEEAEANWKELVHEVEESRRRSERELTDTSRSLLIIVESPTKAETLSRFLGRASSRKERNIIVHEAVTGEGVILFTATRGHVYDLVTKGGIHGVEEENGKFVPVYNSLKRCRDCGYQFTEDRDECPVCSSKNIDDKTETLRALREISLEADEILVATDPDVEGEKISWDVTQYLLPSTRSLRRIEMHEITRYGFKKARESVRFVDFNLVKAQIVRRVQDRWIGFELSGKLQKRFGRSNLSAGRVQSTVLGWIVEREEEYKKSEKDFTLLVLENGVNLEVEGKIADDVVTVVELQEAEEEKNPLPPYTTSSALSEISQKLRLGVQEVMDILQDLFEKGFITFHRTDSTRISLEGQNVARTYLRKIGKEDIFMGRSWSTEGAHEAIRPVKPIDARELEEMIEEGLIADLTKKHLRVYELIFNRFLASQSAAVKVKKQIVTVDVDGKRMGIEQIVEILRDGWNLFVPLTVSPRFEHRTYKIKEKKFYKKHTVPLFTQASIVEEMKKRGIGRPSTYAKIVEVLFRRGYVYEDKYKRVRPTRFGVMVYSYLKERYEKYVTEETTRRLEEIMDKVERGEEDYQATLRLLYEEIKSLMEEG"}},
  "data": [
    {"binder": "B1", "values": [
      {"measurement": "Kd", "setting": "[1]", "result": "41 ± 9", "unit": "nM"}
    ]},
    {"binder": "B2", "values": [
      {"measurement": "Kd", "setting": "[1]", "result": "330 ± 70", "unit": "nM"},
      {"measurement": "Kd", "setting": "rGyr_hel K106Q", "result": "1700 ± 200", "unit": "nM"},
      {"measurement": "Kd", "setting": "rGyr_fl K106Q/Y851F", "result": "490 ± 90", "unit": "nM"}
    ]}
  ]
}
